This series is described as follows: yeast display, Sf9 membrane polyspecificity reagent, FACS + sequencing; frameworks hold sequencing errors. The method in brief: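 Nanobodies from a synthetic yeast display library (Saccharomyces cerevisiae BJ5465), induced 36–48 hours with galactose, were stained 1 hour at 4 °C with 10% biotinylated, detergent-solubilized Sf9 membrane reagent, enriched on streptavidin microbeads, then FACS-sorted. Anti-HA (expression) and streptavidin (reagent binding) fluorescence set low and high (top ~1%) gates. Polyreactivity labels come from the gate of origin. Genes were colony-PCR amplified, MiSeq 2 × 250 sequenced and filtered by CDR length.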
As for “QVQLVESGGGLVQAGGSLRLSCAASGSTIVNNAMGWYIQAPGKERELVAAIRSSDGRTYYADSVKGRFTISRDNAKNTVYLQMNSLKPEDTAVYYCNRRYRKYSSAKYDYWGQGTQVTVSS”, the “polyreactivity (PSR sort gate)” value is reported as “high polyreactivity”.
The entry for “QVQLVESGGGLVQAGGSLRLSCAASGSTIVYYAMGWYRQAPGKERELVAAISGSGGSTYYADSVKGRFTISRDNAKNTVYLQMNSLKPEDTAVYYCAKSYGSHRKIRTSFGYWGQGTQVTVSS” is “high polyreactivity”; for “QVQLVESGGGLVQAGGSLRLSCAASGSTIWFYVMGWYRQAPGKERELVATIRWSTSSTYADSVKGRFTISRDNAMNTVYLQMNILKPEDTAVYYCNAQYSQVNGYDYWGQGTQVTVSS” it is “low polyreactivity”.
On to “QVQLVESGGGLVQAGGSLRLSCAASGSTIYDNAMGWYRQATGKESELVAAITWSVGRTYYADSVKGRFTISRDNAKNTVYLQMNSMKPEDTAVYYCAARSQDRTYFQVFVSDTPYNYWGQGTQVTVSS”, for which the “polyreactivity (PSR sort gate)” value is on record as “low polyreactivity”.
The entry for “QVQLVESGGGLVQAGGSLRLSCAASGSTIYFNAMGRYRQAPGKERELAAGIRSSGGSTYYADSVKGRFTISRDNAKNTVYLQMISLKPEDTAVYYCAGVRYRELYWGQGTQVTVSS” is “high polyreactivity”; for “QVQLVESGGGLVQAGGSLRLSCAASGSTIYGYAMGWYRQAPGKERELVAAISISGGGTYYADSVKGRFTISRDNAKNTVYLQMNSLKPEDTAVYYCARRYFWGQGTQVTVSS” it is “low polyreactivity”.
On to “QVQLVESGGGLVQAGGSLRLSCAASGSTIYGYGMGWYRQAPGKERELVAAITGSGDTTYYADSVKGRFTISRDNAKNNVYLQMNSLKPEDTAVYYCNARWHAEYDYWGQGTQVTVSS”, for which the “polyreactivity (PSR sort gate)” value is reported as “low polyreactivity”.
The same measure for “QVQLVESGGGLVQAGGSLRLSCAASGSTIYLYAMGWYRQAPGKERELVAAIRGRGGRTYYADSVKGRFTISRDNAKNTVYLQMNSLKPEDTAVDYCNADVYAYYRATTRFDYWGQGTQVTVSS”: “high polyreactivity”.
With “QVQLVESGGGLVQAGGSLRLSCAASGSTIYRYAMGWNRQAPGKERELVATISRTGARTNYADSVKGRFTISRDNAKNTVYLQMNSLKPEDTAVYYCAASAPYIYYWGQGTQVTVSS”, the “polyreactivity (PSR sort gate)” value is on record as “high polyreactivity”.
Take “QVQLVESGGGLVQAGGSLRLSCAASGSTIYTYAMGWYRPAPGKERELVAAISYRAGSTYYADSVKGRFTISRDNAKTSVYFQMNSLTPEDTAVYYCNVDGVVVGTKRGGYDYWGQGTQVTVSS”: the “polyreactivity (PSR sort gate)” value is “low polyreactivity”.
Regarding “QVQLVESGGGLVQAGGSLRLSCAASGSTLAPYVMGWYIQAPGKERELVAVISTRTGRTYYAVSVKGRFTISRDNAKNTVYLQMNSLKPEDTAVYYCAAAYGWSWYRYDYWGQGTQVTVSS”, the “polyreactivity (PSR sort gate)” value is “high polyreactivity”.
The entry for “QVQLVESGGGLVQAGGSLRLSCAASGSTLARYAMGWYRQAPGKERELVAAISSDGRTYYADSVKGRYTISRDNAKNTVYLQIYSLKPEDTAVYYCATLRPYAYPQYDSWGQGTQVTVSS” is “high polyreactivity”.
The entry for “QVQLVESGGGLVQAGGSLRLSCAASGSTLASYAMGWYRQAPGKERELVAVIDSGGSTYYADSVKGRFTISRDNAKNTVYLQMNSLKPEDTAVYYCAAGWEFSGVLTLFGYWGQGTQVTVSS” is “low polyreactivity”; for “QVQLVESGGGLVQAGGSLRLSCAASGSTLASYARGWYRQAPGKERELVAAISSSGGSTYYADSVKGRFTISRDNAKNTVYLQMNSLKPEDSEVYYCAARTRTRYGIDYYWGQGTQVTVSS” it is “high polyreactivity”; for “QVQLVESGGGLVQAGGSLRLSCAASGSTLATYTMGWYRQAPGKERELVAAISFGGSTYYADSVKGRFTISRDNAKNTVYLQMNRLKPEDTAVYYCAVYGDSYWGAYYYSDGYWGQGTQVTVSS” it is “low polyreactivity”.
As to “QVQLVESGGGLVQAGGSLRLSCAASGSTLAVYAMGWYRQAPGKERELDAAISYSGGGTYYADSVKGRFTISRDNAKNTVYLQMNSLKPEDTAVYYCATDLYYEYYTWDYYWGQGTQVTVSS”, the “polyreactivity (PSR sort gate)” value was “low polyreactivity”.
The entry for “QVQLVESGGGLVQAGGSLRLSCAASGSTLAVYAMLWYRQAPGKERELVAAISYSGGGTYYADSVKGRFTISRDNAKNTVYLQMNSLKPEDTAVYYCATDLYYEYFTWDYYWGQGTQVTVSS” is “low polyreactivity”; for “QVQLVESGGGLVQAGGSLRLSCAASGSTLDFNAMGWYRQAPGKERELVAGISRDGGSTYYADSVKGRFTISRDNAKNTVYLQMNSLKPEDTAVYYCAVDFLDWYQDYYITYDYWGQGTQVTVSS” it is “low polyreactivity”; for “QVQLVESGGGLVQAGGSLRLSCAASGSTLDFNAMGWYRQAPGKERELVATITYGVGKNYADSVKGRFTISRDNAKNTVYLQMNSLKPEDTAVYYCAANNWDYARYTYWYYSFLAYDYWGQGTQVTVSS” it is “low polyreactivity”.
The same measure for “QVQLVESGGGLVQAGGSLRLSCAASGSTLDIYAMGWYRQAPGKERELVAAITSGGSTNYADSVKGRFTISRDNAKNTVYLQMNSLKPEDTAVYYCNARYFRGYDYWGQGTQVTVSS”: “high polyreactivity”; for “QVQLVESGGGLVQAGGSLRLSCAASGSTLDRNTMGWYRAAPGKESELVAAITWSGGRTYYADSVKGRFTISRDNANNSVYLQLNSLKPEDTAVYYCNKDYWKRPVDEYDYWGQGTQVTVSS”: “high polyreactivity”; for “QVQLVESGGGLVQAGGSLRLSCAASGSTLDSNAMGWYRQAPGKERELVAGIDWSGGSTYADSVKGRFTISRDNAKNTVYLQMNSLKPEDTAVYYCAKVSRYVQPYSRFDYWGQGTQVTVSS”: “low polyreactivity”.
Take “QVQLVESGGGLVQAGGSLRLSCAASGSTLDYNAMGWYRQATGKERELVAAINWSGGRTYYADSVKGRFTISRDNAKNTVYLQMNSLKPEDTAVYFCAAVDYKAKGYGYWGQGTQVTVSS”: the “polyreactivity (PSR sort gate)” value is on record as “high polyreactivity”.
The entry for “QVQLVESGGGLVQAGGSLRLSCAASGSTLEPNAMGWYRQAPGKERELVAAITIGGSTYYADSVKGRFTISRDNAKNTVYLQMNSLKPEDTSVYYCARRVSRYSWRNYWGQGTQVTVSS” is “high polyreactivity”.
The entry for “QVQLVESGGGLVQAGGSLRLSCAASGSTLERYTMGWYRQAPGKERELVAAIRWSGTSTYYADSVKGRFTISRDNAKNTVYLQMKSLKPEDTAVYYCARVGFSRYYRTMYYWGQGTQVTVSS” is “high polyreactivity”; for “QVQLVESGGGLVQAGGSLRLSCAASGSTLFIYAMGWYRQAPGKEREFVAGISYSGGSTYYADSVKGRFTISRDNAKNTVYLQMNSLKPEDTAVYYCAARTFSKPLTYRPYSGLFYYWGQGTQVTVSS” it is “high polyreactivity”; for “QVQLVESGGGLVQAGGSLRLSCAASGSTLFLYAMGWYRQAPGKERELVAAITWSGGSTYYADSVKGRFTISRDNAKKTVYLQMNSLKPEDTAVYYCAKYGRYFWNSGVDYWGQGTQVTVSS” it is “high polyreactivity”.
The entry for “QVQLVESGGGLVQAGGSLRLSCAASGSTLFSYAMGWYRQAPGKEREFVAAISRRGGSTYYEDSVKGRFTISRDYAKNTVYLQMNSLKPEETAVYYCAARDSSYNWYGYWGQGTQVTVSW” is “high polyreactivity”.
“QVQLVESGGGLVQAGGSLRLSCAASGSTLFYNDMGWYRQAPGKEREFVAAIRSNDGSTYYADSVKGRFTISRDNAKNTVYLQMKSLKPEDTAVYYCNKDVWDGYDWPEFDYWGQGTQVTVSS”: the “polyreactivity (PSR sort gate)” value was “low polyreactivity”.
Consider “QVQLVESGGGLVQAGGSLRLSCAASGSTLGGSVMGWSRQAPGKERELVASITYSGGSTRYADSVKGRFTISRDNAKNTVYLQMNSLKPEDTAVYYCAAGAQRTYYTYSFRRVGYDYDYWGQGTQVTVSS”, for which the “polyreactivity (PSR sort gate)” value is listed as “low polyreactivity”.
The entry for “QVQLVESGGGLVQAGGSLRLSCAASGSTLGHNAMGWYRQAPGKERELVAAITSSGGRTYYADSVKGRFTISRDNAKNTVYLQMYSLKPEDTAVYYCAAKLHGYYDVFGQSHRTYDYWGQGTQVTVSS” is “high polyreactivity”; for “QVQLVESGGGLVQAGGSLRLSCAASGSTLGLNAMGWYRHAPRKEREFVAAISQGGTRTYYADSVKGRLTNSRDNAKNCVYLQMNSLKPEDTAVYYCAALRHRTRAASGGDYWGQGTQVNVSS” it is “high polyreactivity”.
In the case of “QVQLVESGGGLVQAGGSLRLSCAASGSTLGPNVMGWYRQAPGKERELVAAISWRGGSTYYADSVKGRFTISRDNAKNTVYLQMNSLKPEDTAVNYGAARTTTYPYGYWGQGTQVTVSS”, the “polyreactivity (PSR sort gate)” value is reported as “high polyreactivity”.
The same measure for “QVQLVESGGGLVQAGGSLRLSCAASGSTLGRNAMGWYRQAPGKERELVAGIDGSAGSTYYADSVKGRFTISRDNAKNSVYLQMNSLKPEDTAVYYCNADVIDLDYDYWGQGTQVTVSS”: “low polyreactivity”; for “QVQLVESGGGLVQAGGSLRLSCAASGSTLGRNVMGWYRQAPGKERELVAAISSRGSRTYYADSVKGRFTISRDNAKNTVYLQMNSLKPEDTAVYYCNRGWAHSNAKFDYWGQGTQVTVSS”: “high polyreactivity”.
The same measure for “QVQLVESGGGLVQAGGSLRLSCAASGSTLGRYTLGWYRQAPGNERELVAAIRASGTSTYYADSVKGRFTISRDNAKNTVYLQMNSLKPEDTAVYYCNALQFGTVRLDSWGQGTQVTVSS”: “low polyreactivity”; for “QVQLVESGGGLVQAGGSLRLSCAASGSTLGSNTMGWYRQAPGKERELVATISRRGGSTYYADSVKGRFTISRDNAKNTVYLQMNSLKPEDTAVYYCAAPPVYKFTNGDYRSTFFHWGQGTQVTVSS”: “high polyreactivity”; for “QVQLVESGGGLVQAGGSLRLSCAASGSTLGYYAMGWYRQAPGKERELVATITRSGGNTYYADSVKGRFTISRDNAKNTVYLQMNSLKPEDTAVYYCAARRLYGSQRGYWGQGTQVTVSS”: “high polyreactivity”.
The same measure for “QVQLVESGGGLVQAGGSLRLSCAASGSTLGYYDMGWYRQAPGKERELVAAITKSGGSTYYADSVKGRFTISRDNEKNNVYLQMNSLKPEDTAVYYCAAVYVSPKPGTRYYYWGQGTQVTVSS”: “high polyreactivity”; for “QVQLVESGGGLVQAGGSLRLSCAASGSTLGYYTMGWYRQAPGKERELVAAISGSGVTTSYADSVKGRFTISRDNAKNTVYLQMNSLKPEDTAVYYCARRYRVGTTGGDYWGQGTQVTVSS”: “high polyreactivity”.

Values taken from the nanobody polyreactivity screen of Harvey et al. (2022).
